We go through one molecule from paper PMC11772769, “Selective cargo and membrane recognition by SNX17 regulates its interaction with Retriever” (EMBO Reports, 2024).

The assay concerns the target T1, Peptide SNX17_(CT-18), Q15036.
T1 chain: ASDVHGNFAFEGIGDEDL
Nature of the assay: fluorescence anisotropy. The conditions noted are these: chain shown with the change; 5-FAM-labeled SNX17CT-18 peptide; parent: LB. For orientation: In fluorescence polarisation assays a small probe gives low polarisation when free and higher when bound to something large.

B1: MBP-SNX17 (full-length, wild-type), Q15036 N459A; F462A (protein)
chain: MHFSIPETESRSGDSGGSAYVAYNIHVNGVLHCRVRYSQLLGLHEQLRKEYGANVLPAFPPKKLFSLTPAEVEQRREQLEKYMQAVRQDPLLGSSETFNSFLRRAQQETQQVPTEEVSLEVLLSNGQKVLVNVLTSDQTEDVLEAVAAKLDLPDDLIGYFSLFLVREKEDGAFSFVRKLQEFELPYVSVTSLRSQEYKIVLRKSYWDSAYDDDVMENRVGLNLLYAQTVSDIERGWILVTKEQHRQLKSLQEKVSKKEFLRLAQTLRHYGYLRFDACVADFPEKDCPVVVSAGNSELSLQLRLPGQQLREGSFRVTRMRCWRVTSSVPLPSGSTSSPGRGRGEVRLELAFEYLMSKDRLQWVTITSPQAIMMSICLQSMVDELMVKKSGGSIRKMLRRRVGGTLRRSDSQQAVKSPPLLESPDATRESMVKLSSKLSAVSLRGIGSPSTDASASDVHGAFAAEGIGDEDL
With B1, the dissociation constant (Kd) was found to be 86 µM.

What is called Kd is the free concentration of one partner at which half of the binding sites on the other are occupied at equilibrium, for simple one-to-one binding.
